PMC4522605, “Evolution of plant δ^1-pyrroline-5-carboxylate reductases from phylogenetic and structural perspectives” (Frontiers in Plant Science, 2015)

B1: Arabidopsis thaliana P5CR (δ1-pyrroline-5-carboxylate reductase) (enzyme, UniProt P54904 1-276, looked up)
chain: MEILPIPAESFKVGFIGAGKMAESIARGVVASGVLPPNRICTAVHSNLNRRDVFESFGVNVFSTSEEVVKESDVVIFSVKPQVVKKAVTELKSKLSKNKILVSVAAGIKLNDLQEWSGQDRFIRVMPNTPAAVGEAASVMSLGTGATEEDGAIVAMLFGAVGKILKADEKMFDAVTGLSGSGPAYIFLAIEALADGGVAAGLPRELALSLASQTVLGAATMVSKTGKHPGVLKDDVTSPGGTTIAGVHELEKGSFRATLMNAVVAAAKRSRELSQS
notes: Pyrroline-5-carboxylate reductase of Arabidopsis thaliana; coding gene cloned into pMCSG68 (construct as in Giberti et al., 2014); also called AtP5CR; P5C reductase; source: E. coli BL21 Gold, purified (HisTrap HP, TEV cleavage, second HisTrap HP pass); not shown: His6, N-terminal, cleaved; copies: 10

Columns and labels:
[1] = molecular target: Bacillus cereus P5CR (Bc_2977), full-length (Bacillus cereus); experiment: SEC; HiLoad 16/600 Superdex 200 Prep Grade; 1.5 mL of purified protein at ~5 mg/mL; run in lysis buffer (50 mM HEPES pH 8.0, 500 mM NaCl, 5% glycerol, 20 mM imidazole, 10 mM β-mercaptoethanol); calibrated with chymotrypsinogen A, albumin, SpP5CR decamer (275 kDa) and thyroglobulin
[2] = molecular target: the molecule itself; experiment: as above

Molecule | stoichiometry N [1] | stoichiometry N [2]
Bacillus cereus P5CR (Bc_2977), full-length (enzyme) | 10 | –
B1 | – | 10
